# Assays:
# [1] = target: C-terminal domain of minor ampullate spidroin (CTDMi) from N. antipodiana (Nephila antipodiana); assay: SEC; Superdex 75 PG, 120 ml, 10 mM sodium phosphate pH 6.8 without NaCl, 1 ml/min; apparent molecular weight against standards
# [2] = target: Tri-domain miniature fibroin RP-LK-CTDMi of minor ampullate spidroin from N. antipodiana (Nephila antipodiana); assay: as above
Substance,stoichiometry N [1],stoichiometry N [2]
C-terminal domain of minor ampullate spidroin (CTDMi) from N. antipodiana (domain or fragment),2,–
Tri-domain miniature fibroin RP-LK-CTDMi of minor ampullate spidroin from N. antipodiana (domain or fragment),–,2
